Reference: patent publication US20240390512A1, “METHODS OF TREATING CHEMOTHERAPY-RESISTANT CANCER WITH AN ANTIBODY-DRUG CONJUGATE” (DAIICHI SANKYO COMPANY, LIMITED, priority 2021, published 2024)
Substitutions are numbered along the chain they refer to.

B1: rG019: rat anti-human CDH6 monoclonal antibody produced by hybridoma rG019; variable regions SEQ ID NO: 10 and 15 (antibody, listed as Rattus norvegicus, V domains shown)
VL: DIQMTQSPSLLSASVGDRVTLNCKASQNIYKNLAWYQQKLGEGPKLLIYDANTLQTGIPSRFSGSGSGSDFTLTISSLQPEDVATYFCQQYYSGWAFGGVTNLELKRA
VH: QVQLQQSGAELVKPGSSVKISCKASGYTFTRNFMHWIKQQPGNGLEWIGWIYCGDGETEYNQKFNGKATLTADRSSSTAYMELSRLTSEDSAVYFCARGVYGGFAGGYFDFWGQGVMVTVSS
B2: rG055: rat anti-human CDH6 monoclonal antibody produced by hybridoma rG055; variable regions SEQ ID NO: 20 and 25 (antibody, listed as Rattus norvegicus, V domains shown)
VL: DVQMTHSPSYLAASPGESVSISCKTSKNISNYLVWYQQKPGEAYKLLIYSGSTLQSGTPSRFSGSGSGTDFTLTIRSLEPEDFGLYFCQQYYEKPFTFGSGTKLEIKRA
VH: EVQLQESGPGLVRPSQSLSLSCSVTDYSITSNYWGWIRRFPGNKMEWMGYITYSGYTSYNPSLQSRISITRDTSKNQFFLQLNSVTAEDTATYYCARSINHGGYSYVVDAWGPGASVTVSS
B3: rG061: rat anti-human CDH6 monoclonal antibody produced by hybridoma rG061; variable regions SEQ ID NO: 40 and 45 (antibody, listed as Rattus norvegicus, V domains shown)
VL: B2 VL with H6Q, T25A, S26T, N28S, V34A, L46V, F87S, F96L
VH: EVQLQESGPGLVKPSQSLSLTCSVTGYSITTYYWGWIRKFPGNKMEWMGYISYSGRTSYNPSLKSRMSITRDASKNQFFLQLNSVTTDDTATYYCARSPINHGGYWYFDFWGPGTMVTVSS
B4: rG056: rat anti-human CDH6 monoclonal antibody produced by hybridoma rG056; variable regions SEQ ID NO: 30 and 35 (antibody, listed as Rattus norvegicus, V domains shown)
VL: DVQMTQSPSSLAASPGESVSISCRATKSIGIYLAWYQQKPGKTFKLLIYSGSTLQSGTPSRFSGSGSGTDFTLTIRSLEPEDFGLYFCQQFYENPFTFGSGTKLEIRRA
VH: EVQLQESGPGLVKPSQSLSLTCSVTDYSITTYFWGWIRKFPGNKMEWMGYMSYRGGTSYNPSLKSRISITRDTSKNQFFLQLNSVTTEDTATYYCARCPNYGGHSLVFDYWGQGVMVTVSS

Tested on: cynomolgus monkey CDH6
Sequence (as listed by the source): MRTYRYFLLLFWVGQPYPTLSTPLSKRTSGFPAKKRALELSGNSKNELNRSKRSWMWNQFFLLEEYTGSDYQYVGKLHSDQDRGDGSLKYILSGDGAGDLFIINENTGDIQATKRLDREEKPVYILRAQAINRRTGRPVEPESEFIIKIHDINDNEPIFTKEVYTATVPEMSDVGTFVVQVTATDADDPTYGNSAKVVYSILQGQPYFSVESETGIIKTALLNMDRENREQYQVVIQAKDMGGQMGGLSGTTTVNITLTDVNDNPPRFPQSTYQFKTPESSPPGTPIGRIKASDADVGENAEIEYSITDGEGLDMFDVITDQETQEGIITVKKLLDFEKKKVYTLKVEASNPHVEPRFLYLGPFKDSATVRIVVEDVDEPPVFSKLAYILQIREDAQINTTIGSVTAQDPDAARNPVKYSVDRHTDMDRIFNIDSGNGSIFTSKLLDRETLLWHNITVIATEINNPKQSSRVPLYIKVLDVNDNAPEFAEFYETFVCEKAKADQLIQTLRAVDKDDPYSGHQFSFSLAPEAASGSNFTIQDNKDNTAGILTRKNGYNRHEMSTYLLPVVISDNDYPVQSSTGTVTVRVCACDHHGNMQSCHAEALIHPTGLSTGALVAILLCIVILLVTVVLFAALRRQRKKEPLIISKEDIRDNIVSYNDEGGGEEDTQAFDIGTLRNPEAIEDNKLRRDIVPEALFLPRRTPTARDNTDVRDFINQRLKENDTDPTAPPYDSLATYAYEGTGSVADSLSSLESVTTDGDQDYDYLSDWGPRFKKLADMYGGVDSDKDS
Assay: Hybridoma screening by Cell-ELISA and flow cytometry
Format: binding
Settings: hybridoma culture supernatant; cells transfected with pcDNA3.1-cynoCDH6
Experimental: 293α cells (a stable expression cell line derived from HEK293 cells expressing integrin αv and integrin β3) were prepared at 5×10^5 cells/mL in DMEM medium supplemented with 10% FBS. In accordance with transduction procedures for using Lipofectamine 2000 (Thermo Fisher Scientific Inc.), DNA of pcDNA3.1-hCDH6 or pcDNA3.1-cynoCDH6, or pcDNA3.1 as a negative control was introduced into the 293α cells, and the cells were dispensed in an amount of 100 μL/well onto a 96-well plate (Corning Inc.). Thereafter, the cells were cultured under conditions of 37° C. and 5% CO2 in DMEM medium supplemented with 10% FBS for 24 to 27 hours. The obtained transfected cells were used for Cell-ELISA in an adhesive state.
The culture supernatant of the 293α cells transfected with the expression vector prepared in Reference Example 1)-4-1 was removed, and the culture supernatant from each hybridoma was then added to the 293α cells transfected with pcDNA3.1-hCDH6 or pcDNA3.1-cynoCDH6, or pcDNA3.1. The cells were left standing at 4° C. for 1 hour. The cells in the wells were washed once with PBS (+) supplemented with 5% FBS, and thereafter, Anti-Rat IgG-Peroxidase antibody produced in rabbit (Sigma-Aldrich Co. LLC) that had been 500-fold diluted with PBS (+) supplemented with 5% FBS was added to the wells. The cells were left standing at 4° C. for 1 hour. The cells in the wells were washed three times with PBS (+) supplemented with 5% FBS, and thereafter, OPD coloring solution (which had been prepared by dissolving o-phenylenediamine dihydrochloride (Wako Pure Chemical Industries, Ltd.) and H2O2 in an OPD solution (0.05 M trisodium citrate, 0.1 M disodium hydrogen phosphate 12-water; pH 4.5), so that the substances became 0.4 mg/ml and 0.6% (v/v), respectively, was added in an amount of 100 μL/well to the wells. A coloring reaction was carried out with occasional stirring. Thereafter, 1 M HCl was added to the plate (100 μL/well) to terminate the coloring reaction, followed by measurement of the absorbance at 490 nm using a plate reader (ENVISION: PerkinElmer, Inc.).
293T cells were seeded in a 225-cm^2 flask (Sumitomo Bakelite Co., Ltd.) at 5×10^4 cells/cm^2, and the cells were then cultured overnight under conditions of 37° C. and 5% CO2 in DMEM medium supplemented with 10% FBS. pcDNA3.1-cynoCDH6 or pcDNA3.1 as a negative control was introduced into the 293T cells using Lipofectamine 2000, and the cells were further cultured overnight under conditions of 37° C. and 5% CO2. […]
The binding specificity to cynomolgus monkey CDH6 of an antibody produced from the human CDH6- and cynomolgus monkey CDH6-binding antibody-producing hybridomas that had been selected by Cell-ELISA in Reference Example 1)-4 was further confirmed by flow cytometry. […] The data was analyzed using FlowJo (Tree Star, Inc.). […]

Molecule | binding to monkey CDH6
B1 | bind specifically and strongly
B2 | bind specifically and strongly
B3 | bind specifically and strongly
B4 | bind specifically and strongly
